The values below come from the DeepSol protein solubility set.

The nature of this series: soluble on expression in E. coli; label from the status in PepcDB or PDB records.
Consider “MSTHEATLQQPLLRAIDLKKHYPVKKGIFSPERLVKALDGVSFNLERGKTLAVVGESGCGKSTLGRLLTMIETPTGGELYYQGQDLLKHDPHAQKLRRQKIQIVFQNPYGSLNPRKKVGQILEEPLLINTSLSKAQRREKALAMMAKVGLKTEHYDRYPHMFSGGQRQRIAIARGLMLDPDVVIADEPVSALDVSVRAQVLNLMMDLQQDMGLSYVFISHDLSVVEHIADEVMVMYLGRCVEKGTKEQIFNNPRHPYTQALLSATPRLNPDDRRERIKLTGELPSPLNPPPGCAFNARCSRRFGPCTQLQPQLKEYDGQLVACFAVDQDENPQKPLS”, for which the “soluble on expression in E. coli” value is “not soluble”.

Regarding “MSTHLLHALWLKNSGLHLWIEQVEGHKIVLSDAVPDNTFPDSVATLIRGKRFTHQVKTKLLTPKGREVTLQLPTIAFTPEQAVRVLSQIAAITPMMASSAQRATLAPDLMWMVRLYQGLEQFVRAGRLTIKLGYADHQWWPTWQLSSGLQERGWIAQMTAAAPGVLIANAGSSVAEDIADELPHWIANFLLQDLLDTPRSSEWHSFPEALMRSTPLRRGTAQLVSALNEWRDSMTSVSVQLVFIVEEPSKDREDRIDPADMLWPIRVRVRSGVDSPQPIMLSHYDSATKERLNALRREAILVAPILEKQGTDSNVTPTQLFELQREEGAGDWDCYVTTDQLVEFIGDAAARLKSRGFNVLLPRSWDQQETKAHLRLSDPAEASTQATIGLDKIVDYDWHMSVGDIELTEAEMVELVRSKSGLIHLRGEWVMADTAAIRRIGDYMKDVAAQSRKRKKQALDTAVMEAELAKANDDPRWPMLEARAEKLAEEFNNEFAEFGQVTLAELRELALKAQENEPIAYTGSPWHASLAGGSMGKDSPAPQRVSI”, the “soluble on expression in E. coli” value is recorded as “not soluble”.

Take “MSTITKEWLLKTIAELEEERDATPGAVNEDAAMALAAMKLALASLEAEPVAWLLSGGGAKNNVSFDSGNAYAAQLREVTPLYTAPPAPVSVPAAMEIDDDFDSAFEHGKAVGWNAYRAAMLQAEPVSNSDELPLDYLQGHKDGLEWAAQLAEANHPQTGDWLYDDQIELARAIRKGPDMPTVQGGNSPVIPDGWVMVPVELTPDMRAAWDSAPYTDDDDNDMQAAYRAMIAVAPQWKVK”: the “soluble on expression in E. coli” value is reported as “not soluble”.

For “MSTLLDRVPCTIVTGFLGAGKTTLLRGLLEKLDGKRLAIIVNEFGDIGIDGEILKGCGIESCPEENIVELANGCICCTVADDFQPAIEQILSRQPKVEHILIETSGLALPKPLVQAFQWPAIKSRVTVDAVVAVVDGAALAEGQVAHDMEALAAQRANDEALDHDDPVEEVFEDQVACADLIVLTKADLLDDAGLEKAKAHILEHLPKAAKIVVASNGAIDPTVLIGLGLAVEEDIENRRTHHDGELDHEHDDFDSFVIDLPAVTDPEALAARIAQTAAAENVLRIKGFIEVATKPMRLQVQAVGSRVNHYYDRPWAAGEERRSRLVVIGEKGINREKIEQMLAA”, the “soluble on expression in E. coli” value is recorded as “not soluble”.

Regarding “MSTPFGLDLGNNNSVLAVARNRGIDIVVNEVSNRSTPSVVGFGPKNRYLGETGKNKQTSNIKNTVANLKRIIGLDYHHPDFEQESKHFTSKLVELDDKKTGAEVRFAGEKHVFSATQLAAMFIDKVKDTVKQDTKANITDVCIAVPPWYTEEQRYNIADAARIAGLNPVRIVNDVTAAGVSYGIFKTDLPEGEEKPRIVAFVDIGHSSYTCSIMAFKKGQLKVLGTACDKHFGGRDFDLAITEHFADEFKTKYKIDIRENPKAYNRILTAAEKLKKVLSANTNAPFSVESVMNDVDVSSQLSREELEELVKPLLERVTEPVTKALAQAKLSAEEVDFVEIIGGTTRIPTLKQSISEAFGKPLSTTLNQDEAIAKGAAFICAIHS”, the “soluble on expression in E. coli” value is “not soluble”.

Turning to “MSTQLATSMEIIRKSLRKAAEDVLHINSKNAISNEVDSEEFKETLMKDAMKLMELETEGAQMQHIFEALHNDLKDGSDEVPNEKALEELYEKAKKTHKNVKGERQYFKDIIKSIRDESKNDENEMEVMQVQHSRKDPISKKDIVNPVISKNCGHVYDRDSIHEFAGKKRVIKCAMQGCSETINIGQLADYPDYWTNIKQQQ”, the “soluble on expression in E. coli” value is recorded as “not soluble”.

Regarding “MSTQPSHPSSSNDLDSSIGTARIEVVSVPVKPRNKFSTTPVKRVEMKKSKESDSVDKALKVKSSLDCMKLEKPAPTTCEMKAA”, the “soluble on expression in E. coli” value was “soluble”.

“MSTSVAENKALSASGDVNASDASVPPELLTRHPLQNRWALWYLKADRNKEWEDCLKMVSLFDTVEDFWSLYNHIQSAGGLNWGSDYYLFKEGIKPMWEDVNNVQGGRWLVVVDKQRRTQLLDHYWLELLMAIVGEQFDEYGDYICGAVVNVRQKGDKVSLWTRDATRDDVNLRIGQVLKQKLSIPDTEILRYEVHKDSSARTSSTVKPRICLPAKDPAPVKEKGPAATTSPSNPGTEATGTSPATPTP”: the “soluble on expression in E. coli” value is “not soluble”.

Turning to “MSTTAYQPIAECGATTQSEAAAYQKRWLVANDAGQWLNRDLCPRLAEVSVELRMGYLVLKAPGMLRLDIPLDVIEDDDSVRYQMLVGEQTVDVVDEGELAAAWISNHAGVPCRILKVHPDMAEVRWPSLEHHHHHH”, the “soluble on expression in E. coli” value is “soluble”.

With “MSTTHNVPQGDLVLRTLAMPADTNANGDIFGGWLMSQMDIGGAILAKEIAHGRVVTVRVEGMTFLRPVAVGDVVCCYARCVQKGTTSVSINIEVWVKKVASEPIGQRYKATEALFKYVAVDPEGKPRALPVE”, the “soluble on expression in E. coli” value is “soluble”.

In the case of “MSTTKAFKMTYTNAGNKKTEQVIQATEPLTILLMGVDTGGEGRGTSDSWNGNSDSQILMTLNPKTHTTTMVSIERDTMTNILDADGNIVSKQKMNAAYPLGYNSGSSSDGLKNAVSYAMKTISAQTGINIDSFVTVNFDGLVNMVDNVGGIDINNTTGQTLYISDTEPQYTAKVPPGKQHINGDQALVYTRDRHHLSNGDYGRAAHQREVIAALMKKILALDNITRYEQFLNEASKDFRTNIPINASTITSLLGYKDCFNKVVSIQYEGVGEMVDGASYQFMPTDIYLAMQNIMKKSLDESTVTTLPSSLITYESVFGSGTAPFYYLPSATVTEKGKSTVTYGVDTQGNLVSLNSKNSGNYVSTSGGSVQSDSSSGSSSSSSDSTATSSSDSTYQQDNTYNDGYNNSNDSTTSSYGTDDTNTGNYGYGTSQLEHHHHHH”, the “soluble on expression in E. coli” value is listed as “soluble”.

For the sequence “MSVDLAHIRQVRAEADCLFNNDEVEAAIGRVAEAINRDLGETNPVVFCVMNGGLIFSGKLLPLLDFPLELSYLHATRYRNETSGGELFWKAKPEISFIDRDVLIIDDILDEGHTLSAIIDFCKHAGARAVHTAVLVDKEHERKARPDLKASFTGLYCADRYVFGYGMDYKGYWRNAAGIFAVKGL”, the “soluble on expression in E. coli” value is recorded as “not soluble”.

As to “MSVEEVSKKFEENVSVDDTTATPKTVLSDSAHFDVKHPLNTKWTLWYTKPAVDKSESWSDLLRPVTSFQTVEEFWAIIQNIPEPHELPLKSDYHVFRNDVRPEWEDEANAKGGKWSFQLCGKGADIDELWLCTLLAVIGETIDEDDSQINGVVLSIRKGGNKFALWTKCEDKEPLLRIGGKFKQVLKLTDDGHLEFFPHCSANGRHPQPSITL”, the “soluble on expression in E. coli” value is listed as “soluble”.

In the case of “MSVIDANALDTAAFVARYRALFEHSPWVVERAARRRPFDDVFGGLMQVVYDASPDDQLALIRAHPELAGKAAIDRTLTAASAAEQASAGLDRLDEDEFHRFHALNHAYRQRFGFPFVICVRLQDKAGILAELQRRLDAPRNDEIATALAEIGKIVHLRLEALPLEHHHHHH”, the “soluble on expression in E. coli” value was “soluble”.

Take “MSVIKLKSKLKYCHYAYDDEGYVIHMLTSNERTFFTNAYIIETKNSIVVVDTLMVNSDAILLRQYMDNINKPLIAVIITHGHPDHYNGTEIITGFKEVPIISTKGIRDCIQDTVDSKEVKWKPYFGQDWPEHKILPNQLVIDSEVVNLDGLDYSFRDLGAAESSSDLFFTLGEKRSVIFVGDVVFNNMHGFMNDGNSAQWLKVLQKLLTEIADVKLLFTGHGDPGDTHQLVQRQIDYISHYRSNLLAIIRGNQLEHHHHHH”: the “soluble on expression in E. coli” value is “not soluble”.

Consider “MSVINCEEVKRDEFHTEKYYESYNIFGAHIVTEDEMRGVRFTVWAPHAKAMSVVGDFNEWDYEQHKMLQVTEEGIWSLFIPHIEEREIYKYAIETMAGDVIFKADPYAVYAEVRPNTASVVFDIKGYEWNDKNWSRKKKKKSVYKEAMTVYELHFGSWKKKEDGTLYSYREMAEELIPYVVEHQFTHIEIMPLVEHPYDRSWGYQGTGYYAATSRFGTPHDLMHFVDECHKYGIGVILDWVPGHFCKDAHGLYLFDGTPTYEYKDKDVQENPVWGTVNFDLGKREVRNFLISNALFWMRYFHIDGFRVDAVANMLYWNKEGQEQSNEHAVSFLRELNEAVFAEDEDFLMTAEDSTAWPLVTAPTYEGGLGFNYKWNMGWMNDVLKYMECAPEYRKYIHDKMTFSLLYAYSENFILPLSHDEVVHGKKSLLNKMPGDYWDKFAQLRLLYGYFFTHPGKKLLFMGGEFGQFDEWKDLEDLDWNLHDFEMHRYMHDYFKELIALYKRSKPLWQLDHSREGFQWIDANNNEQSIFSFIRQGDKQEDALVVVCNFTKATYENYKVGVPDFEYYNEVLNSDAEQYGGSGQVNKKRLKTFQEPYHNQTAHVEITIPPFGVSILRPVKTRKGSKKQDGSKTKVRSNVTSRGKR”, for which the “soluble on expression in E. coli” value is recorded as “not soluble”.

Regarding “MSVKLRLPQSAYPIFDRIEEMAWARHYQQIVREEKETELADDLEKGLPQHLFESLCIDHLQRHGANKQAISHAFDDDVEFQERMAEHIRYMAETIAHHQVDIDLEDLEHHHHHH”, the “soluble on expression in E. coli” value was “not soluble”.

Consider “MSVNALYDYKFEPKDKVENFHGMQLLYVYWPDHLLFCAPFALLVQPGMTFSALVDEILKPATAAHPDSAKADFLNAEWLLNDEPFTPKADASLKEQGIDHKSMLTVTTPGLKGMANAGY”, for which the “soluble on expression in E. coli” value is reported as “soluble”.

As to “MSVTEHKKQAPKEVRCKIVTISDTRTEETDKSGQLLHELLKEAGHKVTSYEIVKDDKESIQQAVLAGYHKEDVDVVLTNGGTGITKRDVTIEAVSALLDKEIVGFGELFRMISYLEDIGSSAMLSRAIGGTIGRKVVFSMPGSSGAVRLAMNKLILPELGHITFELHRQ”, the “soluble on expression in E. coli” value was “soluble”.

Regarding “MSWEGFKKAINRAGHSVIIKNVDKTIDKEYDMEERRYKVLQRAGEALQKEAKGFLDSLRAVTASQTTIAEVISNLYDDSKYVAGGGYNVGNYYLQCVQDFDSETVKQLDGPLRETVLDPITKFSTYFKEIEEAIKKRDHKKQDFDAAKAKVRRLVDKPAKDASKLPRAEKELSLAKDIFENLNNQLKTELPQLVSLRVPYFDPSFEALIKIQLRFCTDGYTRLAQIQQYLDQQSRDDYANGLLDTKIEELLGQMTSLDICALGIK”, the “soluble on expression in E. coli” value is given as “not soluble”.

Take “MSWIPFKIGQPKKQIVSKTVERDFEREYGKLQQLEEQTKRLQKDMKKSTDADLAMSKSAVKISLDLLSNPLCEQDQDFLRMVTALDTAMKRMDAFNQEKVNQIQKTVIEPLKKFGSIFPSLNMAVKRREQALQDYGRLQAKVEKYEEKEKTGPVLAKLHQAREELRPVREDFEAKNKQLLDEMPRFYNSRLDYFQPSFESLIRAQVIYYSEMHKIFGDLTQQLDQPGHSDEHRERENETKLSELRALSIVADD”: the “soluble on expression in E. coli” value was “not soluble”.

With “MSWTVDIPKEALPDLPPLPDGLQQQFENVIARDAKQQPSWDKATAETVRKILESVPPIVVAPEVRELKQHLADVANGRAFLLQGGDCAETFESNTEPHIRANIKTLLQMAVVLTYGASTPVVKMARIAGQYAKPRSSDLDANGLPNYRGDIVNGVEATEEARRHDPARMIRAYANSSAASNLVRALTSSGTADLHRLTGWNREFVASSPAGARYEALAQEIERGLRFMSACGVNDHTLHSADIFCSHEALVVDYERAMLRLAEDEEGNVELYDLSAHQLWIGERTRGLDDFHVNFAAMIANPIGIKIGPTATPEEVVAYANKLDPNFVPGRLTIVARMGHDKVRDVLPGIVKAVEESGHKVIWQSDPMHGNTFTSSNGYKTRHFDKVIDEVQGFFEVHRALGTHPGGIHIEFTGENVTECLGGAEDITDVDLPGRYESACDPRLNTQQSLELSFLVAEMLRN”, the “soluble on expression in E. coli” value is listed as “not soluble”.
